Test results taken from PMC5643538, “Direct visualization of critical hydrogen atoms in a pyridoxal 5′-phosphate enzyme” (Nature Communications, 2017).

Biological target: the molecule itself
Test: crystal structure; joint neutron (2.2 Å) and X-ray (2.0 Å) structure at room temperature, pH 7.5, crystal soaked with 300 mM alpha-methyl-DL-aspartate; homodimer in one asymmetric unit

B1: recombinant porcine cytosolic aspartate aminotransferase (enzyme)
chain: MAPPSVFAEVPQAQPVLVFKLIADFREDPDPRKVNLGVGAYRTDDCQPWVLPVVRKVEQRIANDSSLNHEYLPILGLAEFRTCASRLALGDDSPALQEKRVGGVQSLGGTGALRIGAEFLARWYNGTNNKDTPVYVSSPTWENHNGVFTTAGFKDIRSYRYWDTEKRGLDLQGFLSDLENAPEFSIFVLHACAHNPTGTDPTPEQWKQIASVMKRRFLFPFFDSAYQGFASGNLEKDAWAIRYFVSEGFELFCAQSFSKNFGLYNERVGNLTVVAKEPDSILRVLSQMEKIVRVTWSNPPAQGARIVARTLSDPELFHEWTGNVKTMADRILSMRSELRARLEALKTPGTWNHITDQIGMFSFTGLNPKQVEYLINEKHIYLLPSGRINMCGLTTKNLDYVATSIHEAVTKIQ
modifications: pyridoxal 5'-phosphate covalently linked to K258 (internal aldimine; chain B at pH 7.5, both chains at pH 4.0); in chain A at pH 7.5 PLP is linked to alpha-methylaspartate (external aldimine) and K258 is free; protein deuterated
notes: aspartate aminotransferase, cytosolic, pig; the construct and its tag are not described here; also called AAT; source: E. coli T7 Express LacIQ, deuterated (minimal medium with 100% D2O), purified (Ni-NTA)
  stoichiometry N: 2
